PMC2814127

Legend:
[1] = molecular target: actin (rabbit fast twitch skeletal muscle), reconstituted as actin filament in gelsolin-extracted bovine myocardium (rabbit) (UniProt P68135)
[2] = molecular target: actin (rabbit fast twitch skeletal muscle), reconstituted as actin filament in gelsolin-extracted bovine myocardium (rabbit) (UniProt P68135); remark: listed apart in the source

myosin of bovine myocardium (thick filament, cross-bridges) (from UniProt Q9BE39 1-1935) (complex)
Stiffness at pCa 7 (25°C), fibres reconstituted with acetyl Tm (from bovine myocardium) and Tn [1]: 0.038 T ac | Stiffness at pCa 7 (25°C), fibres reconstituted with nfTm and Tn [1]: 0.044 T ac | Stiffness at pCa 7 (25°C), fibres reconstituted with ∆2Tm and Tn [1]: 0.039 T ac | Stiffness at pCa 7 (25°C), fibres reconstituted with ∆3Tm and Tn [1]: 0.04 T ac | Tension at pCa 7 (25°C), fibres reconstituted with acetyl Tm (from bovine myocardium) and Tn [1]: 0.168 T ac | Tension at pCa 7 (25°C), fibres reconstituted with nfTm and Tn [1]: 0.065 T ac | Tension at pCa 7 (25°C), fibres reconstituted with ∆2Tm and Tn [1]: 0.109 T ac | Tension at pCa 7 (25°C), fibres reconstituted with ∆3Tm and Tn [1]: 0.196 T ac | Rigor stiffness (100 Hz, 25°C), fibres reconstituted with nfTm and Tn [2]: 166 T ac | Rigor stiffness (100 Hz, 25°C), fibres reconstituted with ∆2Tm and Tn [2]: 201 T ac | Rigor stiffness (100 Hz, 25°C), fibres reconstituted with ∆3Tm and Tn [2]: 249 T ac | Tension (T m), steady-state active tension in the standard activating solution at 25°C, fibres reconstituted with nfTm and Tn [2]: 1.51 T ac | Tension (T m), steady-state active tension in the standard activating solution at 25°C, fibres reconstituted with ∆2Tm and Tn [2]: 1.65 T ac | Tension (T m), steady-state active tension in the standard activating solution at 25°C, fibres reconstituted with ∆3Tm and Tn [2]: 0.91 T ac
